Measurements published in patent publication US20160176955A1 (LEIDOS, published 2016).

B1: peptide 10 (amino acids 91-106 of CSP) (peptide)
peptide: HKKLKQPADGNPDP
B2: peptide 8 (amino acids 71-85 of CSP) (peptide)
peptide: SLGENDDGNNEDNEK
B3: peptide C (peptide)
peptide: NEKLRKPKHK
B4: monoclonal antibody (mAb) 5D5 (antibody, V domains shown)
VH: QVHLQQSGGEVARPGASVKLSCKASGYTFTGYGLSWVKQRTGQGLEWIGEIYPRSGNTYYNEKFKGKATLTADKSSSTAYMELRSLTSEDSAVYFCARSWGNSSFVYWGQGTLVTVSA
VL: SIVMTQTPKFLLVSAGDRVTITCKASQSVTNDVTWYQQKPGQSPKLLIYYASNRYTGVPDRFTGSGYGTDFTFTISTVQAEDLAVYFCQQDYSSPFTFGSGTKLEIKR
notes: Murine IgG1/kappa hybridoma antibody; also called 5D5 mAb; MRA-1242
B5: peptide A (peptide)
peptide: DGNNEDNEK
B6: peptide E (peptide)
peptide: PKHKKLKQPAD
B7: peptide D (peptide)
peptide: LRKPKHKKLKQ
B8: peptide 9 (amino acids 81-95 of CSP) (peptide)
peptide: EDNEKLRKPKHKKLK
B9: peptide B (peptide)
peptide: NEDNEKLRK

Columns and labels:
[1] = target: B4; test: competitive ELISA, competitor against rCSP for binding to mAb 5D5; row 0.001 µg/ml
[2] = target: B4; test: competitive ELISA, competitor against rCSP for binding to mAb 5D5; row 0.01 µg/ml
[3] = target: B1; test: indirect ELISA, 15-mer peptide mapping
[4] = target: B2; test: indirect ELISA, 15-mer peptide mapping

| Binder | ELISA signal (name and unit not given) [1] | ELISA signal (name and unit not given) [2] | binding result [3] | binding result [4] |
| --- | --- | --- | --- | --- |
| B1 | 0.92 | 3.34 |  |  |
| B2 | 0.952 | 3.35 |  |  |
| B3 | 0.976 | 3.49 |  |  |
| B4 |  |  | no binding | no binding |
| B5 | 1.05 | 3.57 |  |  |
| B6 | 0.925 | 3.39 |  |  |
| B7 | 0.989 | 3.45 |  |  |
| B8 | 0.19 | 0.246 |  |  |
| B9 | 1.03 | 3.51 |  |  |
